Experimental data reported in publication PMC2955292 (Chemistry & biology, 2010).
Several values for one entry are separate records, joined by “and”; a condition that tells them apart may be missing. Equal entries are not always repeated.

Biological target: the molecule itself
Assay: AUC

B1: Escherichia coli ClpP (enzyme)
chain: not shown
Q: For B1, which “stoichiometry N” value is on record?
A: Its value is 14 and 7.
